Reference: patent publication US7507799 (CORNELL RESEARCH FOUNDATION, dated 2009)

Experiments:
TrkA on 293 cells = test: whole-cell competition against 1 nM 125I-NGF on 293 cells expressing only trk A
Description: (§1) FIG. 8: Binding analysis of mature and cleavage-resistant pro-NGF to TrkA or p75^NTR receptors. […] Competition analysis of equilibrium binding was performed using a whole-cell assay. Cells were incubated with 1 nM radioiodinated NGF in the presence or absence of unlabeled mature NGF or unlabeled proNGF from 0.005 to 7 nM concentration for 1 hour at […] Nonspecific binding measured in parallel incubation with 500-fold excess mature NGF was less than 10% of total binding; all results were corrected for this non-specific binding. Each point represents the mean±standard deviation of quadruplicate determinations. Squares, commercial mature NGF; open circles, cleavage resistant pro-NGF.
(§2) The cleavage resistant proform of NGF binds with higher affinity than the cleaved mature form of NGF to the p75 receptor. Competition binding assays were performed to determine the affinity of interaction of the uncleaved proform to p75 or to trk A. Commercially purchased, predominantly mature NGF (Enzo Products for Science, Farmingdale, N.Y.) was radiolabeled and incubated with cells expressing only p75, in the presence or absence of increasing concentrations of either unlabeled cleaved NGF, or of unlabeled cleavage resistant pro-NGF. […] Thus, the cleavage resistant pro-NGF proform binds less effectively to trk A.

[1] = target: p75 on vascular smooth muscle cell line (p75Ts-Tag-SMC); test: cell-based or functional assay
p75NTR on A875 cells [2] = target: T1, p75NTR on A875 cells (UniProt P08138 29-427); test: whole-cell competition against 1 nM 125I-NGF on cells expressing only p75 (A875 cells)
T1 construct: whole, on cells; also called p75 receptor; cells expressing only p75
T1 sequence (looked up): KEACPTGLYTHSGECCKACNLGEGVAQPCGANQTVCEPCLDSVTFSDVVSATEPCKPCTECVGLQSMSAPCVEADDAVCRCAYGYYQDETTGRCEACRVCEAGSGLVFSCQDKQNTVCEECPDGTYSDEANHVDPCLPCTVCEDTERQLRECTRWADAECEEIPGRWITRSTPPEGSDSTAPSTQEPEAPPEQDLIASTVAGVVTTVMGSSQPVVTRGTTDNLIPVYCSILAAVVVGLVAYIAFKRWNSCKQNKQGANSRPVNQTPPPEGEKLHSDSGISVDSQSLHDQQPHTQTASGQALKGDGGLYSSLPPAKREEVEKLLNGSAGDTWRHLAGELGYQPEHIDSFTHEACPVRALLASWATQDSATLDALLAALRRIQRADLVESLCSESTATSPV
Description: as §1, §2

p75NTR on A875 cells [3] = target: T1, p75NTR on A875 cells; test: ratio of IC50s, whole-cell competition against 125I-NGF on cells expressing only p75
Description: as §1, §2

Chain of TrkA on 293 cells (chain, as listed by the source): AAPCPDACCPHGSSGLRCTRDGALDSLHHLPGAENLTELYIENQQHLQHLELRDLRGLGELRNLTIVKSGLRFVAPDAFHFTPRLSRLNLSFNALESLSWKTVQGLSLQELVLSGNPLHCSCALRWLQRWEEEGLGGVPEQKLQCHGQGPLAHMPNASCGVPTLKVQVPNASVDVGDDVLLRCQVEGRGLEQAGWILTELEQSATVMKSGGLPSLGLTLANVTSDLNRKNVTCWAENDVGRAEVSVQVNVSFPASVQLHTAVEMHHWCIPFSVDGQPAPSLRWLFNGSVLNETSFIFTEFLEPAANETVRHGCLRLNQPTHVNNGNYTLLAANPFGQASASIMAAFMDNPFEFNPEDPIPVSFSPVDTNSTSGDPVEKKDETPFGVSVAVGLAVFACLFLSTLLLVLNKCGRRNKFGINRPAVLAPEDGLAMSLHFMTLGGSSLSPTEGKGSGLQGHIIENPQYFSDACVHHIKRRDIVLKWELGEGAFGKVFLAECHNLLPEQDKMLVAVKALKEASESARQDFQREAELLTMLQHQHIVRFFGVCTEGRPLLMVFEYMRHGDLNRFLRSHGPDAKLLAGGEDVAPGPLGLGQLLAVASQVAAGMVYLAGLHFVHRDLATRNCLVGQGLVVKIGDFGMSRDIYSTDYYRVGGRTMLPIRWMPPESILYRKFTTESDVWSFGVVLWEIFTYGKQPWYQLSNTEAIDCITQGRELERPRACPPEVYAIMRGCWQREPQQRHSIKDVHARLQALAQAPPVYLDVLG

IC50 (TrkA on 293 cells): > 5 nM
induction of apoptosis relative to mature NGF [1]: ~10 fold
IC50 (p75NTR on A875 cells [2]): 0.2 nM
times as effective in binding p75 as cleaved NGF (p75NTR on A875 cells [3]): ~5 fold
B1: His-tagged cleavage resistant pro-NGF (point mutant, K-R cleavage site at 120,121 mutated to A-A) (ligand)
chain: EPYTDSNVPEGDSVPEAHWTKLQHSLDTALRRARSAPTAPIAARVTGQTRNITVDPRLFKKRRLHSPRVLFSTQPPPTSSDTLDLDFQAHGTIPFNRTHRSAASSTHPVFHMGEFSVCDSVSVWVGDKTTATDIKGKEVTVLAEVNINNSVFRQYFFETKCRASNPVESGCRGIDSKHWNSYCTTTHTFVKALTTDEKQAAWRFIRIDTACVCVLSRKATRRG
notes: also called cleavage resistant proform of NGF; uncleaved proform; not shown: His tag at the carboxy-terminus
